Measured values: publication doi:10.1101/2021.11.15.468682

Molecular target: T1, HsPlk4 PB3 (aa 884-970) (Homo sapiens), O00444
T1 chain: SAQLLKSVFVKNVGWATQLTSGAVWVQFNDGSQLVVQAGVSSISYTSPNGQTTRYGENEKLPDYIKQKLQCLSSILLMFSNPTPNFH
Test: SEC-MALS
Details: remark: other sources report otherwise

stoichiometry N: 2
B1: HsPlk4 PB3 (aa 884-970), O00444 884-970 (domain or fragment)
chain: SAQLLKSVFVKNVGWATQLTSGAVWVQFNDGSQLVVQAGVSSISYTSPNGQTTRYGENEKLPDYIKQKLQCLSSILLMFSNPTPNFH
